Data taken from US20220306758A1.

Biological target: cynomolgus CD3 on mfCD3 engineered Jurkat cells (cynomolgus CD3ε and CD3δ in place of the human versions) (cynomolgus) (UniProt Q95LI5)
Experiment: flow cytometry on mfCD3 engineered Jurkat cells, median EC50, n=2

Chain of cynomolgus CD3 on mfCD3 engineered Jurkat cells (cynomolgus CD3ε and CD3δ in place of the human versions) (cynomolgus) (Q95LI5 22-198, stated change not applied, chain 1 of 2): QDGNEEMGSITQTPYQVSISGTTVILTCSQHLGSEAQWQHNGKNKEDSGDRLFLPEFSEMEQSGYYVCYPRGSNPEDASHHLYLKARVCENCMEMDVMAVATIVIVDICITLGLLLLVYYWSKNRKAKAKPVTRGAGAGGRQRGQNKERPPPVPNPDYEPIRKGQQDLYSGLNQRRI
Chain of cynomolgus CD3 on mfCD3 engineered Jurkat cells (cynomolgus CD3ε and CD3δ in place of the human versions) (cynomolgus) (Q95LI8 22-171, stated change not applied, chain 2 of 2, further chain): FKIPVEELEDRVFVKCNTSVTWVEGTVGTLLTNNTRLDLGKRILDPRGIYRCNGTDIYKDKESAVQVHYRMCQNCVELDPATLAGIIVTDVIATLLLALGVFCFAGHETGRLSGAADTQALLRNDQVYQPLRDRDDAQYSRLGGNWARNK
Chain of REGN5458 (bsAb25441D), anti-BCMA x anti-CD3 bispecific antibody (VH): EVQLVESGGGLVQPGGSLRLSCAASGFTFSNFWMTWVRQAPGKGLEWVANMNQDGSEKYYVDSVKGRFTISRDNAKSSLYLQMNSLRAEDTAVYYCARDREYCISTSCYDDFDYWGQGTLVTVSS
Chain of REGN5458 (bsAb25441D), anti-BCMA x anti-CD3 bispecific antibody (VH): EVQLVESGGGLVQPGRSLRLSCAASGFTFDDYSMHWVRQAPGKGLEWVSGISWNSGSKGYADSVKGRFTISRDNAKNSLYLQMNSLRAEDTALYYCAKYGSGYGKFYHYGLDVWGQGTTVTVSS
Chain of REGN5458 (bsAb25441D), anti-BCMA x anti-CD3 bispecific antibody (VL): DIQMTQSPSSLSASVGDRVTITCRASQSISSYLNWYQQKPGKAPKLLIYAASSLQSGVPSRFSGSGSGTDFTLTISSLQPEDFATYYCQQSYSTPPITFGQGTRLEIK

**Q.** Which EC50 does the source give for “REGN5458 (bsAb25441D), anti-BCMA x anti-CD3 bispecific antibody” here?
**A.** 0.0151 µM
